Molecular target: double-phosphorylated JNK1 (phospho-JNK1) (human, double-phosphorylated (sites not stated for this protein))
Test: cell-based or functional assay

B1: MKP7-CD (F285D) (domain or fragment, human, UniProt Q9BY84 156-301, looked up)
chain: NIGPTRILPNLYLGCQRDVLNKELMQQNGIGYVLNASNTCPKPDFIPESHFLRVPVNDSFCEKILPWLDKSVDFIEKAKASNGCVLVHCLAGISRSATIAIAYIMKRMDMSLDEAYRFVKEKRPTISPNDNFLGQLLDYEKKIKNQ
phosphatase activity for JNK1 dephosphorylation, relative to wild-type MKP7-CD (Fig. 4a): ~10 fold

Source: paper PMC4802042, “A conserved motif in JNK/p38-specific MAPK phosphatases as a determinant for JNK1 recognition and inactivation” (Nature Communications, 2016)
